koff, Kd and kon data for three substances are collected here from PMC4407741.

The test addresses soluble human neonatal Fc receptor (shFcRn; FcRn heavy chain ectodomain / beta2-microglobulin heterodimer) (UniProt P55899+P61769). Briefly: SPR (BIAcore 3000). The conditions noted are these: 25°C, 150 mM NaCl, HBS-P: 10 mM HEPES at pH 6.0 and pH 7.5 (same buffer at both pH). Background: SPR reads the build-up and loss of mass on a sensor chip optically.

By koff is commonly meant the rate constant with which the complex falls apart. As for “DX-2500 (germlined parental clone M90-F11), fully human anti-FcRn IgG1 germlined relative to M90-F11 (changes not printed)”, the koff runs as follows: (pH 6.0) 0.0177 s⁻¹; (pH 7.4) 0.0752 s⁻¹.
As a reminder, the Kd is the constant that tells how readily two partners part at equilibrium. Read a high Kd as lower affinity. One may read the kon as a measure of how fast the partners come together. Turning to “DX-2504 (clone M161-B04), fully human anti-FcRn IgG1 Affinity-matured heavy-chain CDR variant of DX-2500/M90-F11 (substitutions not printed)”, for the setting “pH 6.0”, the Kd worked out at 1.5 nM, the off-rate constant (koff) amounted to 0.00035 s⁻¹ and the kon worked out at 240000 M⁻¹ s⁻¹. Also, where the note is “pH 7.5”, the Kd turned out to be 1.9 nM, the dissociation rate constant (koff) is 0.00028 s⁻¹ and the kon was 150000 M⁻¹ s⁻¹.
Consider “DX-2507, fully human anti-FcRn IgG1 (variant of DX-2504) relative to DX-2504: LC-CDR3 Cys->Ala (position number not printed); C-terminal Lys deleted”, for which, under “pH 6.0”, the Kd came to 1.8 nM, the koff was found to be 0.00024 s⁻¹ and the kon worked out at 130000 M⁻¹ s⁻¹. Moreover, where the note is “pH 7.5”, the Kd came to 2 nM, the koff was 0.00024 s⁻¹ and the association rate constant (kon) is 100000 M⁻¹ s⁻¹.
